Results on six molecules are retold here after publication PMC5381662 (Cell reports, 2016).

Holding throughout (assay): pull-down
Assay [1] has as its target Strep II-tagged UAF1 K459E (UniProt Q8TAF3 1-677, K459E).
Assay [2] concerns the target Strep II-tagged UAF1 K595E/H599A double mutant (UniProt Q8TAF3 1-677, K595E | H599A).
Assay [3] has as its target Strep II-tagged UAF1 H599A (UniProt Q8TAF3 1-677, H599A).
Assay [4] deals with Strep II-tagged UAF1 K595E (UniProt Q8TAF3 1-677, K595E).
Assay [5] deals with T1, Strep II-tagged UAF1 (UniProt Q8TAF3 1-677).
Another assay has as its target T2, RAD51 (UniProt Q06609 1-339).
T2 sequence (looked up): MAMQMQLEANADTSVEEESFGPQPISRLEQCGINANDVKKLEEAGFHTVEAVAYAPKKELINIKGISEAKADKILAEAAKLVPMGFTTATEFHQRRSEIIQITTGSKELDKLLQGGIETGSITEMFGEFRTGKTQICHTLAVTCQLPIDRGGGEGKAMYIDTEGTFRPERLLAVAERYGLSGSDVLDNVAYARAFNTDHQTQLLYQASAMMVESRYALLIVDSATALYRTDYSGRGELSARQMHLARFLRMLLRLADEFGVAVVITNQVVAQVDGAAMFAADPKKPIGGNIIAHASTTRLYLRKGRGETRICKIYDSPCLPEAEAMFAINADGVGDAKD

The target in assay [6] is T1, Strep II-tagged UAF1. This is another data set of the same source.
For assay [7], the target named is T1, Strep II-tagged UAF1. The source holds these as a separate data set.

Changes are numbered by the printed parent chain. Numbers in names are those of the source. Like-named read-outs stand apart in the source and are kept apart here.

T1 sequence (Q8TAF3 whole entry): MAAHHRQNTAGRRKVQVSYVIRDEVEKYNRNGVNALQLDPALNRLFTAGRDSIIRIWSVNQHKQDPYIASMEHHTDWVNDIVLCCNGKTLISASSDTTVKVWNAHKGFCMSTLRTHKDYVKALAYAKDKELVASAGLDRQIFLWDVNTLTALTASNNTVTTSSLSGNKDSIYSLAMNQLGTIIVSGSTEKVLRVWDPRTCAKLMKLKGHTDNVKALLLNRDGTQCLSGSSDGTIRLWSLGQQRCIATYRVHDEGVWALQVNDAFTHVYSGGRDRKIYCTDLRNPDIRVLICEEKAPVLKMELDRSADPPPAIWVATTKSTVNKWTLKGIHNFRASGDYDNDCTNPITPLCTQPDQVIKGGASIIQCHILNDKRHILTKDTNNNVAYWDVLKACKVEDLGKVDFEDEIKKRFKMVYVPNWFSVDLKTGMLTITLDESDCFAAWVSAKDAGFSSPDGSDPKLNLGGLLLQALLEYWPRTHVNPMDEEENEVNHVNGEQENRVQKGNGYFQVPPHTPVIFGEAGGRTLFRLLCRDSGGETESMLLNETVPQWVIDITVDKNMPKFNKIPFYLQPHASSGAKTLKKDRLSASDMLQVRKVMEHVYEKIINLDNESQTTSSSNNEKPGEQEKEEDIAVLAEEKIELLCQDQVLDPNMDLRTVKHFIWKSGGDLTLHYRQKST
Sequence of Strep II-tagged UAF1 K459E (Q8TAF3 whole entry K459E): as the sequence (Q8TAF3 whole entry) above, with K459E counted along it
Sequence of Strep II-tagged UAF1 K595E (Q8TAF3 whole entry K595E): as the sequence (Q8TAF3 whole entry) above, with K595E counted along it
Sequence of Strep II-tagged UAF1 K595E/H599A double mutant (Q8TAF3 whole entry K595E/H599A): as the sequence (Q8TAF3 whole entry) above, with K595E, H599A counted along it
Sequence of Strep II-tagged UAF1 H599A (Q8TAF3 whole entry H599A): as the sequence (Q8TAF3 whole entry) above, with H599A counted along it

B1: GST-tagged RAD51AP1 (natural protein, UniProt Q96B01-2 1-335, looked up)
chain: MVRPVRHKKPVNYSQFDHSDSDDDFVSATVPLNKKSRTAPKELKQDKPKPNLNNLRKEEIPVQEKTPKKRMALDDKLYQRDLEVALALSVKELPTVTTNVQNSQDKSIEKHGSSKIETMNKSPHISNCSVASDYLDLDKITVEDDVGGVQGKRKAASKAAAQQRKILLEGSDGDSANDTEPDFAPGEDSEDDSDFCESEDNDEDFSMRKSKVKEIKKKEVKVKSPVEKKEKKSKSKCNALVTSVDSAPAAVKSESQSLPKKVSLSSDTTRKPLEIRSPSAESKKPKWVPPAASGGSRSSSSPLVVVSVKSPNQSLRLGLSRLARVKPLHPNATST
Take B1: the binding result (in assay [1]; in assay [2]; in assay [3]; in assay [4]; with Strep II-tagged UAF1 [5]) was “binds” each time.

B2: RAD51AP1 (no tag named) (natural protein, UniProt Q96B01-2 1-335, looked up)
chain: B1 chain
On to B2, for which the binding result with RAD51 and in the assay with Strep II-tagged UAF1 [6] was “binds” in each case.

B3: RAD51AP1 1-145 fragment (domain or fragment, UniProt Q96B01-2 1-145, looked up)
chain: MVRPVRHKKPVNYSQFDHSDSDDDFVSATVPLNKKSRTAPKELKQDKPKPNLNNLRKEEIPVQEKTPKKRMALDDKLYQRDLEVALALSVKELPTVTTNVQNSQDKSIEKHGSSKIETMNKSPHISNCSVASDYLDLDKITVEDD
For the molecule B3, in the assay with Strep II-tagged UAF1 [7], the binding result was “binds”.

B4: RAD51AP1 ΔN25 mutant (domain or fragment, UniProt Q96B01-2 26-335, looked up)
chain: VSATVPLNKKSRTAPKELKQDKPKPNLNNLRKEEIPVQEKTPKKRMALDDKLYQRDLEVALALSVKELPTVTTNVQNSQDKSIEKHGSSKIETMNKSPHISNCSVASDYLDLDKITVEDDVGGVQGKRKAASKAAAQQRKILLEGSDGDSANDTEPDFAPGEDSEDDSDFCESEDNDEDFSMRKSKVKEIKKKEVKVKSPVEKKEKKSKSKCNALVTSVDSAPAAVKSESQSLPKKVSLSSDTTRKPLEIRSPSAESKKPKWVPPAASGGSRSSSSPLVVVSVKSPNQSLRLGLSRLARVKPLHPNATST
With B4, in the assay with Strep II-tagged UAF1 [7], the binding result is “binds”.

B5: RAD51AP1 H329A mutant (natural protein, UniProt Q96B01-2 1-335, looked up)
chain: B1 chain with H329A
On to B5, for which the binding result with Strep II-tagged UAF1 [7] is reported as “binds”.

B6: RAD51AP1 fragment, amino acid residues 95-187 (domain or fragment, UniProt Q96B01-2 95-187, looked up)
chain: TVTTNVQNSQDKSIEKHGSSKIETMNKSPHISNCSVASDYLDLDKITVEDDVGGVQGKRKAASKAAAQQRKILLEGSDGDSANDTEPDFAPGE
B6: the binding result in the assay with Strep II-tagged UAF1 [7] is listed as “binds”.
